The target of one assay is T1, hBCMA (human BCMA) (Homo sapiens, UniProt Q02223).
T1 sequence (Q02223 1-184): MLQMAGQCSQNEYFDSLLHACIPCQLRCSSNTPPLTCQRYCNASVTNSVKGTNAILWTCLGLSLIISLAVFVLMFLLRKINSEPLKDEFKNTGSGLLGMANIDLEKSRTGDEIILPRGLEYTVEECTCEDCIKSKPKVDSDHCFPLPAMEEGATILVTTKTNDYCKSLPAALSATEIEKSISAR
Kind of assay: Kinetics and affinity of hBCMA/human IgG interactions by SPR (Bio-Rad Proteon XPR36). It counts as binding. The conditions noted are these: huBCMA. On the procedure:
All experiments were performed on a Bio-Rad Proteon XPR36 surface Plasmon resonance biosensor (Bio-Rad, Hercules, Calif.). An array of anti-BCMA antibodies was prepared using an amine-coupling method on a Bio-Rad GLC Sensor Chip similar to that described in Abdiche, et al., Anal. Biochem. 411, 139-151 (2011). The analysis temperature for the immobilization was 25° C. and the running buffer was HBS-T+(10 mM HEPES, 150 mM NaCl, 0.05% Tween-20, pH 7.4). Channels were activated in the analyte (horizontal) direction by injecting a mixture of 1 mM ECD and 0.25 mM NHS for 3 minutes at a flow rate of 30 μL/min. IgGs were immobilized on the activated spots by injecting them in the ligand (vertical) direction at 20 μg/mL in 10 mM Acetate pH 4.5 buffer for 1.5 minutes at […]. The activated surfaces were blocked by injecting 1M ethanolamine, pH 8.5 in the analyte direction for 3 minutes at 30 μL/min.
The analysis temperature for the hBCMA binding analysis was 37° C. or 25° C. in a running buffer of HBS-T+, supplemented with 1 mg/mL BSA. A kinetic titration method was employed for the interaction analysis as described in Abdiche, et al. The hBCMA (human BCMA) analyte was injected in the analyte direction using a series of injections from low to high concentration. The concentrations used were 0.08 nM, 0.4 nM, 2 nM, 10 nM and 50 nM (a 5-membered series, with a 5-fold dilution factor and top concentration of 50 nM). The association time for a given analyte dilution was two minutes. Immediately after the 50 nM hBCMA injection, dissociation was monitored for 2 hours. Prior to the hBCMA analyte injections, buffer was injected 5 times using the same association and dissociation times at the hBCMA analyte cycles to prepare a buffer blank sensorgram for double-referencing purposes (double referencing as described in Myszka, J. Mol. Recognit. 12, 279-284 (1999).
The sensorgrams were double-referenced and fit to a 1:1 Langmuir with mass transport kinetic titration model in BIAevaluation Software version 4.1.1 (GE Lifesciences, Piscataway, N.J.). The sensorgrams and fits are shown in FIG. 1, and the kinetics and affinity parameters for various anti-BCMA antibodies of the present invention are shown in Tables 6A-6C.
On the technique in general: In SPR one partner is held on a chip, and binding of the other changes the refractive index at the surface.

Another assay relates to cyBCMA. Briefly: Kinetics and affinity of cyBCMA/human IgG interactions by SPR (Bio-Rad Proteon XPR36). Format: binding, cynomolgus.

The text below walks through data of patent publication US11814435B2, “Therapeutic antibodies and their uses” (PFIZER INC., priority 2015, dated 2023).

B1: L3.PY/L3.KF/H3.YA: anti-BCMA antibody (antibody, V domains shown)
VH: EVQLLESGGGLVQPGGSLRLSCAASGFTFGSYAMTWVRQAPGKGLEWVSAISGSGGNTFYADSVKGRFTISRDNSKNTLYLQMNSLRAEDTAVYYCARVSPIYAGMDYWGQGTLVTVSS
VL: EIVLTQSPGTLSLSPGERATLSCRASQSVSSSYLAWYQQKPGQAPRLLIYGASSRATGIPDRFSGSGSGTDFTLTISRLEPEDFAVYYCKFYPYPPSFTFGQGTKVEIK
On to B1, for which, in the assay with hBCMA (human BCMA), the “ka (1/Ms) huBCMA @ 37° C.” value came to 3.12e+06 M⁻¹ s⁻¹ and the “kd (1/s) huBCMA @37° C.” value is 0.00147 s⁻¹. Besides, in the assay on cyBCMA, the “ka (1/Ms) cyBCMA @ 37° C.” value is 2.1e+06 M⁻¹ s⁻¹ and the “kd (1/s) cyBCMA @37° C.” value is 0.00796 s⁻¹.

B2: L1.LGF/L3.PY/H3.AP: anti-BCMA antibody (antibody, V domains shown)
VH: EVQLLESGGGLVQPGGSLRLSCAASGFTFGSYAMTWVRQAPGKGLEWVSAISGSGGNTFYADSVKGRFTISRDNSKNTLYLQMNSLRAEDTAVYYCARVSPIAAPMDYWGQGTLVTVSS
VL: EIVLTQSPGTLSLSPGERATLSCRASQSLGSFYLAWYQQKPGQAPRLLIYGASSRATGIPDRFSGSGSGTDFTLTISRLEPEDFAVYYCQHYPYPPSFTFGQGTKVEIK
On to B2, for which, in the assay with hBCMA (human BCMA), the “ka (1/Ms) huBCMA @ 25° C.” value came out at 457000 M⁻¹ s⁻¹ and the “kd (1/s) huBCMA @25° C.” value stood at 0.000969 s⁻¹. Also, in the assay with cyBCMA, the “ka (1/Ms) cyBCMA @ 25° C.” value came out at 364000 M⁻¹ s⁻¹ and the “kd (1/s) cyBCMA @25° C.” value was 0.013 s⁻¹.

B3: L1.GDF/L3.KW/H3.AP: anti-BCMA antibody (antibody, V domains shown)
VH: EVQLLESGGGLVQPGGSLRLSCAASGFTFGSYAMTWVRQAPGKGLEWVSAISGSGGNTFYADSVKGRFTISRDNSKNTLYLQMNSLRAEDTAVYYCARVSPIAAPMDYWGQGTLVTVSS
VL: EIVLTQSPGTLSLSPGERATLSCRASQSVGDFYLAWYQQKPGQAPRLLIYGASSRATGIPDRFSGSGSGTDFTLTISRLEPEDFAVYYCKHYGWPPSFTFGQGTKVEIK
Regarding B3, in the assay with hBCMA (human BCMA), the “ka (1/Ms) huBCMA @ 25° C.” value was found to be 1.17e+06 M⁻¹ s⁻¹ and the “kd (1/s) huBCMA @25° C.” value came out at 0.00461 s⁻¹. For the same molecule, in the assay on cyBCMA, the “ka (1/Ms) cyBCMA @ 25° C.” value stood at 814000 M⁻¹ s⁻¹ and the “kd (1/s) cyBCMA @25° C.” value turned out to be 0.0203 s⁻¹.

B4: L1.LGF/L3.KW/H3.AL: anti-BCMA antibody (antibody, V domains shown)
VH: EVQLLESGGGLVQPGGSLRLSCAASGFTFGSYAMTWVRQAPGKGLEWVSAISGSGGNTFYADSVKGRFTISRDNSKNTLYLQMNSLRAEDTAVYYCARVSPIAALMDYWGQGTLVTVSS
VL: EIVLTQSPGTLSLSPGERATLSCRASQSLGSFYLAWYQQKPGQAPRLLIYGASSRATGIPDRFSGSGSGTDFTLTISRLEPEDFAVYYCKHYGWPPSFTFGQGTKVEIK
In the case of B4, in the assay with hBCMA (human BCMA), the “ka (1/Ms) huBCMA @ 25° C.” value worked out at 428000 M⁻¹ s⁻¹ and the “kd (1/s) huBCMA @25° C.” value is 0.00123 s⁻¹. Moreover, in the assay on cyBCMA, the “ka (1/Ms) cyBCMA @ 25° C.” value was 290000 M⁻¹ s⁻¹ and the “kd (1/s) cyBCMA @25° C.” value is 0.0121 s⁻¹.

B5: L1.LGF/L3.NY/H3.AL: anti-BCMA antibody (antibody, V domains shown)
VH: EVQLLESGGGLVQPGGSLRLSCAASGFTFGSYAMTWVRQAPGKGLEWVSAISGSGGNTFYADSVKGRFTISRDNSKNTLYLQMNSLRAEDTAVYYCARVSPIAALMDYWGQGTLVTVSS
VL: EIVLTQSPGTLSLSPGERATLSCRASQSLGSFYLAWYQQKPGQAPRLLIYGASSRATGIPDRFSGSGSGTDFTLTISRLEPEDFAVYYCQHYNYPPSFTFGQGTKVEIK
Turning to B5, in the assay with hBCMA (human BCMA), the “ka (1/Ms) huBCMA @ 25° C.” value was 763000 M⁻¹ s⁻¹ and the “kd (1/s) huBCMA @25° C.” value stood at 0.00097 s⁻¹. Moreover, in the assay with cyBCMA, the “ka (1/Ms) cyBCMA @ 25° C.” value came out at 635000 M⁻¹ s⁻¹ and the “kd (1/s) cyBCMA @25° C.” value is 0.0148 s⁻¹.

B6: L1.LGF/L3.KW/H3.AP: anti-BCMA antibody (antibody, V domains shown)
VH: EVQLLESGGGLVQPGGSLRLSCAASGFTFGSYAMTWVRQAPGKGLEWVSAISGSGGNTFYADSVKGRFTISRDNSKNTLYLQMNSLRAEDTAVYYCARVSPIAAPMDYWGQGTLVTVSS
VL: EIVLTQSPGTLSLSPGERATLSCRASQSLGSFYLAWYQQKPGQAPRLLIYGASSRATGIPDRFSGSGSGTDFTLTISRLEPEDFAVYYCKHYGWPPSFTFGQGTKVEIK
Take B6: in the assay with hBCMA (human BCMA), the “ka (1/Ms) huBCMA @ 25° C.” value was determined as 928000 M⁻¹ s⁻¹ and the “kd (1/s) huBCMA @25° C.” value turned out to be 0.00227 s⁻¹. Moreover, in the assay on cyBCMA, the “ka (1/Ms) cyBCMA @ 25° C.” value is 554000 M⁻¹ s⁻¹ and the “kd (1/s) cyBCMA @25° C.” value was 0.0154 s⁻¹.

B7: L1.GDF/L3.KW/H3.AL: anti-BCMA antibody (antibody, V domains shown)
VH: EVQLLESGGGLVQPGGSLRLSCAASGFTFGSYAMTWVRQAPGKGLEWVSAISGSGGNTFYADSVKGRFTISRDNSKNTLYLQMNSLRAEDTAVYYCARVSPIAALMDYWGQGTLVTVSS
VL: EIVLTQSPGTLSLSPGERATLSCRASQSVGDFYLAWYQQKPGQAPRLLIYGASSRATGIPDRFSGSGSGTDFTLTISRLEPEDFAVYYCKHYGWPPSFTFGQGTKVEIK
As for B7, in the assay with hBCMA (human BCMA), the “ka (1/Ms) huBCMA @ 25° C.” value is 445000 M⁻¹ s⁻¹ and the “kd (1/s) huBCMA @25° C.” value was 0.0039 s⁻¹. Further, in the assay on cyBCMA, the “ka (1/Ms) cyBCMA @ 25° C.” value was found to be 318000 M⁻¹ s⁻¹ and the “kd (1/s) cyBCMA @25° C.” value amounted to 0.018 s⁻¹.

B8: L3.PY/L3.KF/H3.AE: anti-BCMA antibody (antibody, V domains shown)
VH: EVQLLESGGGLVQPGGSLRLSCAASGFTFGSYAMTWVRQAPGKGLEWVSAISGSGGNTFYADSVKGRFTISRDNSKNTLYLQMNSLRAEDTAVYYCARVSPIAAEMDYWGQGTLVTVSS
VL: EIVLTQSPGTLSLSPGERATLSCRASQSVSSSYLAWYQQKPGQAPRLLIYGASSRATGIPDRFSGSGSGTDFTLTISRLEPEDFAVYYCKFYPYPPSFTFGQGTKVEIK
With B8, in the assay with hBCMA (human BCMA), the “ka (1/Ms) huBCMA @ 37° C.” value stood at 3.07e+06 M⁻¹ s⁻¹ and the “kd (1/s) huBCMA @37° C.” value amounted to 0.00155 s⁻¹. In the assay with cyBCMA, the “ka (1/Ms) cyBCMA @ 37° C.” value amounted to 1.85e+06 M⁻¹ s⁻¹ and the “kd (1/s) cyBCMA @37° C.” value amounted to 0.00564 s⁻¹.

B9: L3.PY/L3.KF/H3.TAQ: anti-BCMA antibody (antibody, V domains shown)
VH: EVQLLESGGGLVQPGGSLRLSCAASGFTFGSYAMTWVRQAPGKGLEWVSAISGSGGNTFYADSVKGRFTISRDNSKNTLYLQMNSLRAEDTAVYYCTRVSPIAAQMDYWGQGTLVTVSS
VL: EIVLTQSPGTLSLSPGERATLSCRASQSVSSSYLAWYQQKPGQAPRLLIYGASSRATGIPDRFSGSGSGTDFTLTISRLEPEDFAVYYCKFYPYPPSFTFGQGTKVEIK
Take B9: in the assay with hBCMA (human BCMA), the “ka (1/Ms) huBCMA @ 37° C.” value stood at 2.82e+06 M⁻¹ s⁻¹ and the “kd (1/s) huBCMA @37° C.” value was 0.00162 s⁻¹. In addition, in the assay with cyBCMA, the “ka (1/Ms) cyBCMA @ 37° C.” value is 2.01e+06 M⁻¹ s⁻¹ and the “kd (1/s) cyBCMA @37° C.” value amounted to 0.00191 s⁻¹.

B10: L1.LGF/L3.NY/H3.AP: anti-BCMA antibody (antibody, V domains shown)
VH: EVQLLESGGGLVQPGGSLRLSCAASGFTFGSYAMTWVRQAPGKGLEWVSAISGSGGNTFYADSVKGRFTISRDNSKNTLYLQMNSLRAEDTAVYYCARVSPIAAPMDYWGQGTLVTVSS
VL: EIVLTQSPGTLSLSPGERATLSCRASQSLGSFYLAWYQQKPGQAPRLLIYGASSRATGIPDRFSGSGSGTDFTLTISRLEPEDFAVYYCQHYNYPPSFTFGQGTKVEIK
For B10, in the assay with hBCMA (human BCMA), the “ka (1/Ms) huBCMA @ 25° C.” value stood at 936000 M⁻¹ s⁻¹ and the “kd (1/s) huBCMA @25° C.” value is 0.000533 s⁻¹. Besides, in the assay with cyBCMA, the “ka (1/Ms) cyBCMA @ 25° C.” value came out at 830000 M⁻¹ s⁻¹ and the “kd (1/s) cyBCMA @25° C.” value stood at 0.00557 s⁻¹.
